Source: paper PMC5021334
pKd: −log10 of the molar value.

What was measured:
[1] = molecular target: GST-DENV3 NS5 residues 865-900 (Dengue virus serotype 3); experiment: ELISA; solid-phase microtitre plate assay: GST-NLS from cell lysate captured on a glutathione coated plate and washed (PBS, 0.05% Tween-20); Impα in 2-fold serial dilutions in PBS from 12.5 μM, 1 h at RT; bound Impα detected with anti-6x His tag HRP antibody and TMB at 450 nm; one-site specific binding …
[2] = molecular target: GST-DENV1 NS5 residues 865-899 (Dengue virus serotype 1); experiment: as above
[3] = molecular target: GST-DENV2 NS5 residues 865-900 (Dengue virus serotype 2); experiment: as above
[4] = molecular target: GST-DENV4 NS5 residues 865-901 (Dengue virus serotype 4); experiment: as above
[5] = molecular target: GST-DENV3 NS5 residues 865-900 (Dengue virus serotype 3); experiment: pull-down
[6] = molecular target: GST-DENV2 NS5 residues 865-900 (Dengue virus serotype 2); experiment: pull-down

mouse importin-α lacking the auto-inhibitory importin-β binding domain (Impα) (domain or fragment)
pKd [1]: 6.18
pKd [2]: 4.27
pKd [3]: 5.34
pKd [4]: 4.73
pKd [5]: 6.43
pKd [6]: 6.57
